The record followed here is patent publication US20240116985A1 (published 2024).

For test [1], the target named is T1, full-length beta-Catenin (Uniprot ID P35222) (Homo sapiens (Human), UniProt P35222 2-781).
T1 construct: The assay text says 'full-length'; also called B-Catenin; bCat
T1 sequence: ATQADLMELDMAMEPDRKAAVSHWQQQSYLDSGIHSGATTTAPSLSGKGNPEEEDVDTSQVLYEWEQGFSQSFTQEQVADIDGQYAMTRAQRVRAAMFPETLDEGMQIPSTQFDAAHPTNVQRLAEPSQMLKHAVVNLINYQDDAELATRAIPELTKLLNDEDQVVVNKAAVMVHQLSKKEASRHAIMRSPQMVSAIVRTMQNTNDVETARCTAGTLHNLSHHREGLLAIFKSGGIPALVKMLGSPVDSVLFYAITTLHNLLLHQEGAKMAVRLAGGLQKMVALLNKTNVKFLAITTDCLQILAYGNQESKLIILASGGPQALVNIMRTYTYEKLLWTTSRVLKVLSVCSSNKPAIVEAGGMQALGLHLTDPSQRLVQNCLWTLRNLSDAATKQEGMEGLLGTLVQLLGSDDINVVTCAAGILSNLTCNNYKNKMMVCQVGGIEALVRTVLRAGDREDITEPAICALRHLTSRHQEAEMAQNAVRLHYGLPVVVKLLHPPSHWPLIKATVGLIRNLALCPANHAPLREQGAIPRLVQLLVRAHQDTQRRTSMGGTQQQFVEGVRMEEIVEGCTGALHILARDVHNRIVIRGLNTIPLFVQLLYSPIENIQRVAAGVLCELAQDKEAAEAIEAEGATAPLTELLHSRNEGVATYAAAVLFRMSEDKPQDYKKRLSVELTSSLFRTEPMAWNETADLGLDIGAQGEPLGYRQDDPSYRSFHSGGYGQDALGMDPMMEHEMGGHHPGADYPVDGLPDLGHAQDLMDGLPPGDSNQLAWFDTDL
As to the kind of experiment: AlphaScreen competition vs biotin-TCF4(10-53) on full-length beta-catenin. The procedure:
(§1) Equal volume of the titrated peptide was added to the plate and incubated for 15 minutes at 20° C. Then 4 uL of donor and 4 uL acceptor beads at 10 ug/mL were added to the plate, for a 16 uL reaction pool and protected from light for 60 minutes at 20° C. prior to read. Reads were performed on a CLARIOstar plate reader (BMG Labtech) in duplicate, and data were fitted to a 1:1 binding model with hill slope using an in-house script. All provided concentrations are final concentrations.
On the technique in general: In Alpha technology, singlet oxygen from a donor bead excites a nearby acceptor bead.

Test [2] has as its target T2, full-length beta-Catenin (Uniprot ID P35222) (Homo sapiens (Human), UniProt P35222 2-781).
T2 construct: Used full-length in both the FP and the AlphaScreen assay; also called B-Catenin; bCat
T2 sequence: T1 sequence
As to the kind of experiment: AlphaScreen competition; full-length beta-catenin, biotin-TCF4(10-53) probe. The procedure: as §1

Starred links: 1 amine or outer side, 2 acyl side, 3 side chain; linkers in the order of their positions; H or OH if unused. Positions of bridges follow the written chain, without caps; N, C: chain ends. Non-standard residues stand in square brackets, D forms with d. Primed or numbered codes have the meaning given here. RgN = (R)-3-(((allyloxy)carbonyl)(methyl)amino)-2-amino-2-methylpropanoic acid (stapling residue), C=CCOC(=O)N(C)C[C@@](C)(N[*:1])C(=O)[*:2]; Az″ = 1-((allyloxy)carbonyl)-3-aminoazetidine-3-carboxylic acid (staple end via allyl carbamate), C=CCOC(=O)N1CC(N[*:1])(C(=O)[*:2])C1; PyrS″ = (S)-1-((allyloxy)carbonyl)-3-aminopyrrolidine-3-carboxylic acid (stapling residue), C=CCOC(=O)N1CC[C@@](N[*:1])(C(=O)[*:2])C1; SeN = (S)-5-(((allyloxy)carbonyl)(methyl)amino)-2-amino-2-methylpentanoic acid, C=CCOC(=O)N(C)CCC[C@](C)(N[*:1])C(=O)[*:2]; SdN = (S)-4-(((allyloxy)carbonyl)(methyl)amino)-2-amino-2-methylbutanoic acid, C=CCOC(=O)N(C)CC[C@](C)(N[*:1])C(=O)[*:2]; SgN = (S)-3-(((allyloxy)carbonyl)(methyl)amino)-2-amino-2-methylpropanoic acid, C=CCOC(=O)N(C)C[C@](C)(N[*:1])C(=O)[*:2]; Az = 1-((allyloxy)carbonyl)-3-aminoazetidine-3-carboxylic acid (stapling residue), C=CCOC(=O)N1CC(N[*:1])(C(=O)[*:2])C1; PyrS = (S)-1-((allyloxy)carbonyl)-3-aminopyrrolidine-3-carboxylic acid, C=CCOC(=O)N1CC[C@@](N[*:1])(C(=O)[*:2])C1; Az(3) = 1-((allyloxy)carbonyl)-3-aminoazetidine-3-carboxylic acid, C=CCOC(=O)N1CC(N[*:1])(C(=O)[*:2])C1; R7″ = (R)-2-amino-2-methylnon-8-enoic acid (stapling residue), C=CCCCCC[C@@](C)(N[*:1])C(=O)[*:2]; R7 = (R)-2-amino-2-methylnon-8-enoic acid, C=CCCCCC[C@@](C)(N[*:1])C(=O)[*:2]; R4 = (R)-2-amino-2-methylhex-5-enoic acid, C=CCC[C@@](C)(N[*:1])C(=O)[*:2]; S7 = C[C@@](CCCCCC=[*:3])(N[*:1])C(=O)[*:2]; d(αMeF) = C[C@@](N)(Cc1ccccc1)C(=O)O; R8 = C=CCCCCCC[C@@](C)(N)C(=O)O; S8 = C=CCCCCCC[C@](C)(N)C(=O)O; R5 = C=CCCC[C@@](C)(N)C(=O)O

One may read the EC50 as the concentration at which the effect is half-maximal. For the molecule Ac-FDA[RgN]DDAAFV[S7]FWQ-NH2 (staple 4-11, Stapled peptide composition) [I-45], the EC50 in test [1] was at least 10 µM.
The same measure, in the same setting: for Ac-FDA[Az″]DDAAFV[S8]FWQ-NH2 (staple 4-11, Stapled peptide composition) [I-35] the value was 9.54 µM.
For the molecule Ac-FDA[R4]DDAAFV[SeN]FWQ-NH2 (staple 4-11, Stapled peptide composition) [I-36], the response in test [1] was half-maximal at 8.27 µM (EC50).
As for Ac-FDA[R8]DDAAFV[SgN]FWQ-NH2 (staple 4-11, Stapled peptide composition) [I-34], the EC50 in test [1] was at least 10 µM.

B1: I-42 (peptide)
peptide: FDAXDDAAFVXFWQ
modifications: not fully specified; Ac-Phe-Asp-Ala-RdN-Asp-Asp-Ala-Ala-Phe-Val-S4-Phe-Trp-Gln-NH2 as printed: N-terminal acetyl, C-terminal amide, RdN at 4 stapled to S4 at 11
notes: Stapled peptide composition
Consider B1, for which the EC50 in test [1] is 9.34 µM.

B2: I-41 (peptide)
peptide: FDAXDDAAFVXFWQ
modifications: not fully specified; Ac-Phe-Asp-Ala-RdN-Asp-Asp-Ala-Ala-Phe-Val-S4-Phe-Trp-Gln-NH2 as printed: N-terminal acetyl, C-terminal amide, RdN at 4 stapled to S4 at 11
notes: Stapled peptide composition
For the molecule B2, the EC50 in test [1] is at least 10 µM.

B3: I-46 (peptide)
peptide: FDAXDDAAFVXFWQ
modifications: not fully specified; N-terminal Ac; C-terminal NH2; RgN at 4 and S7 at 11, stapled
notes: Stapled peptide; also called Ac-Phe-Asp-Ala-RgN-Asp-Asp-Ala-Ala-Phe-Val-S7-Phe-Trp-Gln-NH2
In the case of B3, the EC50 in test [2] was at least 10 µM.

B4: I-56 (peptide)
peptide: Ac-FDA[R8]D[d(αMeF)]AAFV[PyrS″]FWQ-NH2
modifications: staple 4-11
notes: Stapled peptide; also called Ac-Phe-Asp-Ala-R8-Asp-aMeDF-Ala-Ala-Phe-Val-PyrS-Phe-Trp-Gln-NH2
Turning to B4, in test [2], the concentration giving a half-maximal response (EC50) is at least 10 µM.

B5: I-28 (peptide)
peptide: FDAXDDAAFVXFWQ
modifications: not fully specified; Ac-Phe-Asp-Ala-ReN-Asp-Asp-Ala-Ala-Phe-Val-S6-Phe-Trp-Gln-NH2 as printed: N-terminal acetyl, C-terminal amide, ReN at 4 stapled to S6 at 11
notes: Stapled peptide composition
For B5, the EC50 in test [1] was 8.46 µM. This lies in the single-digit micromolar range.

B6: I-40 (peptide)
peptide: Ac-FDA[R8]DDAAFV[Az]FWQ-NH2
modifications: staple 4-11; not fully specified; printed as Ac-Phe-Asp-Ala-R8-Asp-Asp-Ala-Ala-Phe-Val-Az-Phe-Trp-Gln-NH2
notes: Stapled peptide composition
B6: the concentration giving a half-maximal response (EC50) in test [1] was at least 10 µM.

B7: I-29 (peptide)
peptide: FDAXDDAAFVXFWQ
modifications: not fully specified; Ac-Phe-Asp-Ala-ReN-Asp-Asp-Ala-Ala-Phe-Val-S6-Phe-Trp-Gln-NH2 as printed: N-terminal acetyl, C-terminal amide, ReN at 4 stapled to S6 at 11
notes: Stapled peptide composition
In test [1], B7 had an EC50 of at least 10 µM.

B8: I-43 (peptide)
peptide: FDAXDDAAFVXFWQ
modifications: not fully specified; Ac-Phe-Asp-Ala-RgN-Asp-Asp-Ala-Ala-Phe-Val-S8-Phe-Trp-Gln-NH2 as printed: N-terminal acetyl, C-terminal amide, RgN at 4 stapled to S8 at 11
notes: Stapled peptide composition
B8 yielded an EC50 in test [1] of at least 10 µM.
The same measure, in the same setting: under Ac-FDA[R5]DDAAFV[SdN]FWQ-NH2 (staple 4-11, Stapled peptide composition) [I-37] stands at least 10 µM.

B9: I-31 (peptide)
peptide: Ac-FDA[R7]DDAAFV[PyrS]FWQ-NH2
modifications: staple 4-11; not fully specified; printed as Ac-Phe-Asp-Ala-R7-Asp-Asp-Ala-Ala-Phe-Val-PyrS-Phe-Trp-Gln-NH2
notes: Stapled peptide composition
For B9, the EC50 in test [1] worked out at 7.22 µM.
In test [1], Ac-FDA[R7]DDAAFV[Az(3)]FWQ-NH2 (staple 4-11, Stapled peptide composition) [I-38] had an EC50 of at least 10 µM.
The same measure, in the same setting: under Ac-FDA[Az(3)]DDAAFV[S7]FWQ-NH2 (staple 4-11, Stapled peptide composition) [I-33] stands 9.98 µM.

B10: I-39 (peptide)
peptide: Ac-FDA[R8]DDAAFV[Az(3)]FWQ-NH2
modifications: staple 4-11; not fully specified; printed as Ac-Phe-Asp-Ala-R8-Asp-Asp-Ala-Ala-Phe-Val-Az-Phe-Trp-Gln-NH2
notes: Stapled peptide composition
B10 registered an EC50 in test [1] of at least 10 µM.
In the case of Ac-FDA[R7″]DDAAFV[PyrS″]FWQ-NH2 (staple 4-11, Stapled peptide composition) [I-30], the EC50 in test [1] is 8.82 µM.

B11: I-32 (peptide)
peptide: FDAXDDAAFVXFWQ
modifications: not fully specified; Ac-Phe-Asp-Ala-Az-Asp-Asp-Ala-Ala-Phe-Val-S7-Phe-Trp-Gln-NH2 as printed: N-terminal acetyl, C-terminal amide, Az at 4 stapled to S7 at 11
notes: Stapled peptide composition
In the case of B11, the EC50 in test [1] is 7.35 µM.
Same read-out and setting: under Ac-FDA[RgN]DDAAFV[S8]FWQ-NH2 (staple 4-11, Stapled peptide composition) [I-44] stands at least 10 µM.
